Test results reported in US9567379 (UNIVERSITY OF CHICAGO, dated 2017).

How the values were obtained:
human fibrinogen [1] = biological target: T1, human fibrinogen (human, UniProt P02671 20-644; P02675 31-491; P02679 27-437); assay: SPR (BIAcore 3000), human fibrinogen amine-coupled to CM5 chip, Coa injected, 1:1 model
T1 construct: Amine-coupled to a CM5 chip
T1 sequence 1: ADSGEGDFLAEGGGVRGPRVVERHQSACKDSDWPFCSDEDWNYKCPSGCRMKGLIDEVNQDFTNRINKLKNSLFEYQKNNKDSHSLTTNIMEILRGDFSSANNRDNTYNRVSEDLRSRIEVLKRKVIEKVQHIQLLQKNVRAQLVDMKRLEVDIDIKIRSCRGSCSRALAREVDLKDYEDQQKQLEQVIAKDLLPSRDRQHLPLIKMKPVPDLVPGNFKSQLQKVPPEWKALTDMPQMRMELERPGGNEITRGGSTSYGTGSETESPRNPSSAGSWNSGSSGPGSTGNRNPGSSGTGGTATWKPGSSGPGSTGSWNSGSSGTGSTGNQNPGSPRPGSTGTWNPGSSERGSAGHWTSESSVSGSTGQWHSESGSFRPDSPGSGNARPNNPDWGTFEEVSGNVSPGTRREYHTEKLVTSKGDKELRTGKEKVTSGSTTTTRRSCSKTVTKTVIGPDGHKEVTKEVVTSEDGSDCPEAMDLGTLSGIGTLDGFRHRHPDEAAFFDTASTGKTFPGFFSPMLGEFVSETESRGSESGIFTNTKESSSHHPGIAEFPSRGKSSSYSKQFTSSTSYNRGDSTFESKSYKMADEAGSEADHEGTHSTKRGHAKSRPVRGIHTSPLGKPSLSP
T1 sequence 2: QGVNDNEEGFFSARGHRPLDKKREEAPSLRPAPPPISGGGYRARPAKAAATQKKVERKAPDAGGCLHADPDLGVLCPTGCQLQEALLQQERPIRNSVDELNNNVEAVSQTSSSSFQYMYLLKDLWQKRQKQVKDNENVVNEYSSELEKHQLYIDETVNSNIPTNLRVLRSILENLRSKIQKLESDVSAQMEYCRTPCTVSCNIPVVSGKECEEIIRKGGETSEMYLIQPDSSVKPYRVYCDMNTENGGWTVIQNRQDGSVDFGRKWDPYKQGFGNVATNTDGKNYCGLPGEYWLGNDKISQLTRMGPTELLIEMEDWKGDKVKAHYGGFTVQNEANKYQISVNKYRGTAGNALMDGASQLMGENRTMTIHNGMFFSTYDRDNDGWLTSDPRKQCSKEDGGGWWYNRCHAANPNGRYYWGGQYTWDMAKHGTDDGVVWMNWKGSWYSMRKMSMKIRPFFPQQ
T1 sequence 3: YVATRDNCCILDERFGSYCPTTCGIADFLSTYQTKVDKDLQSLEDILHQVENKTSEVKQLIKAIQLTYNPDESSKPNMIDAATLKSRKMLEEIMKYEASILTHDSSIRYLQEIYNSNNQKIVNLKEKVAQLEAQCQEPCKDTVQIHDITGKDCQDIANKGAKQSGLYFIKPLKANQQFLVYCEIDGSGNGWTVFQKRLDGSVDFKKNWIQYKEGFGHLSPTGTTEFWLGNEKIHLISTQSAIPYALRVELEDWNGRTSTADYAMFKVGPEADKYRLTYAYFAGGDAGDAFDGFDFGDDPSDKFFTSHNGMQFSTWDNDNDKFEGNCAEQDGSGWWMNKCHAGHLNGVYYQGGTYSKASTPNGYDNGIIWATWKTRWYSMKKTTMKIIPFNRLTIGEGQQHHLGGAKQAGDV

human prothrombin [2] = biological target: T2, human prothrombin (human, UniProt P00734 44-622); assay: SPR (BIAcore 3000), human prothrombin amine-coupled to CM5 chip, Coa injected at 0-75 nM, 1:1 model
T2 construct: Amine-coupled to a CM5 chip

human fibrinogen [3] = biological target: T1, human fibrinogen; assay: SPR (BIAcore 3000), human fibrinogen amine-coupled to CM5 chip, vWbp injected, 1:1 model; target fibrinogen
human prothrombin [4] = biological target: T2, human prothrombin; assay: SPR (BIAcore 3000), human prothrombin amine-coupled to CM5 chip, vWbp injected, 1:1 model; target prothrombin

B1: coagulase (Coa), recombinant mature protein with the His6 tag removed by Factor Xa (other)
chain: IVTKDYSGKSQVNAGSKNGTLIDSRYLNSALYYLEDYIIYAIGLTNKYEYGDNIYKEAKDRLLEKVLREDQYLLERKKSQYEDYKQWYANYKKENPRTDLKMANFHKYNLEELSMKEYNELQDALKRALDDFHREVKDIKDKNSDLKTFNAAEEDKATKEVYDLVSEIDTLVVSYYGDKDYGEHAKELRAKLDLILGDTDNPHKITNERIKKEMIDDLNSIIDDFFMETKQNRPKSITKYNPTTHNYKTNSDNKPNFDKLVEETKKAVKEADDSWKKKTVKKYGETETKSPVVKEEKKVEEPQAPKVDNQQEVKTTAGKAEETTQPVAQPLVKIPQGTITGEIVKGPEYPTMENKTVQGEIVQGPDFLTMEQSGPSLSNNYTNPPLTNPILEGLEGSSSKLEIKPQGTESTLKGTQGESSDIEVKPQATETTEASQYGPRPQFNKTPKYVKYRDAGTGIREYNDGTFGYEARPRFNKPSETNAYNVTTHANGQVSYGARPTYKKPSETNAYNVTTHANGQVSYGARPTQNKPSKTNAYNVTTHGNGQVSYGARPTQNKPSKTNAYNVTTHANGQVSYGARPTYKKPSKTNAYNVTTHADGTATYGPRVTK
notes: also called functionally active Coa
Human fibrinogen [1]
  Kd: 0.0931 µM
Human prothrombin [2]
  Kd: 0.028 µM

B2: von Willebrand factor binding protein (vWbp), recombinant mature protein with the His6 tag removed by Factor Xa (other)
chain: VVSGEKNPYVSESLKLTNNKNKSRTVEEYKKSLDDLIWSFPNLDNERFDNPEYKEAMKKYQQRFMAEDEALKKFFSEEKKIKNGNTDNLDYLGLSHERYESVFNTLKKQSEEFLKEIEDIKKDNPELKDFNEEEQLKCDLELNKLENQILMLGKTFYQNYRDDVESLYSKLDLIMGYKDEERANKKAVNKRMLENKKEDLETIIDEFFSDIDKTRPNNIPVLEDEKQEEKNHKNMAQLKSDTEAAKSDESKRSKRSKRSLNTQNHKPASQEVSEQQKAEYDKRAEERKARFLDNQKIKKTPVVSLEYDFEHKQRIDNENDKKLVVSAPTKKPTSPTTYTETTTQVPMPTVERQTQQQIIYNAPKQLAGLNGESHDFTTTHQSPTTSNHTHNNVVEFEETSALPGRKSGSLVGISQIDSSHLTEREKRVIKREHVREAQKLVDNYKDTHSYKDRINAQQKVNTLSEGHQKRFNKQINKVYNGK
notes: also called functionally active vWbp
Human fibrinogen [3]
  Kd: 0.484 µM
Human prothrombin [4]
  Kd: 0.0384 µM
